Results published in patent publication US20230257470A1 (published 2023).
Blank lines part the entries; values can stand above or below the binder they belong to.

Columns and labels:
human FcγRIIa type R = biological target: T1, human FcγRIIa type R (human, UniProt P12318 36-217); assay: SPR (Biacore), amount of FcγR bound to captured antibody relative to IL6R-BF648/IL6R-L x100
T1 construct: also called FcgRIIaR; FcγRIIa(R)
T1 chain: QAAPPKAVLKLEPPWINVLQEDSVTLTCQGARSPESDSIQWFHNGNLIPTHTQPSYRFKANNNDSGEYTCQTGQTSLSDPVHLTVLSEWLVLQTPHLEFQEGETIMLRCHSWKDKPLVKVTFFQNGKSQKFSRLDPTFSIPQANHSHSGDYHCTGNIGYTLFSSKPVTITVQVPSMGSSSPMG
Description: According to the following method, relative binding activities were calculated for the results of analyzing interactions with the respective FcγRs.

human FcγRIa = biological target: T2, human FcγRIa (human, UniProt P12314 16-292, limits assumed); assay: SPR (Biacore), antibody captured on chip, FcgR injected, HBS-EP+, 25 C; bound amount corrected by captured amount; reference GpH7-G1d/GpL16-k0
T2 construct: also called hFcgRIa
Description: (§1) Interaction between each modified antibody and Fcγ receptor prepared in the manner described above was analyzed using the BIACORE™ T100 surface plasmon resonance system (GE Healthcare), BIACORE™ T200 surface plasmon resonance system (GE Healthcare), BIACORE™ A100 surface plasmon resonance system or BIACORE™ 4000 surface plasmon resonance system. HBS-EP+(GE Healthcare) was used for the running buffer, and measurements were carried out at 25° C. The chips used were chips in which antigen peptides, Protein A (Thermo Scientific), Protein A/G (Thermo Scientific) or Protein L (ACTIGEN® protein (Alltech or BioVision) were immobilized on the Series S Sensor Chip CM5 (GE Healthcare) or Series S Sensor Chip CM4 (GE Healthcare) by amine coupling, or chips in which preliminarily biotinylated antigen peptides were allowed to interact and then immobilized on the Series S Sensor Chip SA (certified) (GE Healthcare). The target antibodies were captured on these sensor chips, Fcγ receptor diluted with the running buffer was allowed to interact, followed by measurement of the amount of bound antibody. The amounts bound were compared between antibodies. However, since the amount of Fcγ receptor bound depends on the amount of captured antibody, the values used for comparison were first corrected by dividing the amount of Fcγ receptor bound by the captured amount of each antibody. Through reaction with 10 mM glycine-HCl at pH 1.5, the sensor chips were regenerated by washing off antibody captured on the sensor chips and used repeatedly.

human FcγRIIa(R) [1] = biological target: T3, human FcγRIIa(R) (human, UniProt P12318 36-217); assay: as above
T3 construct: also called hFcgRIIa(R); FcγRIIa type R
T3 chain: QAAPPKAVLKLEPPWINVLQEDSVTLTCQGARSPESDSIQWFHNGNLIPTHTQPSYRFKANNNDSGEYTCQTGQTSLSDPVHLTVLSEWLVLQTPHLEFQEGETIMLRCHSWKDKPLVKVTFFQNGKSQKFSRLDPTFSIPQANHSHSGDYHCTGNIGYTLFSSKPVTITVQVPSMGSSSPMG
Description: as §1

human FcγRIIb [2] = biological target: T4, human FcγRIIb (human, UniProt P31994 43-217, limits assumed); assay: as above
T4 construct: also called hFcgRIIb
T4 sequence: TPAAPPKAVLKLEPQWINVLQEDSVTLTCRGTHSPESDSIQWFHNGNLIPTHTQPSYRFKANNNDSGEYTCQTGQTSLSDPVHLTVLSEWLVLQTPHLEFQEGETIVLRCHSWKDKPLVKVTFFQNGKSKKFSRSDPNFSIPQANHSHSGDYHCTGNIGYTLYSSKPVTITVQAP
Description: as §1

human FcγRIIa(H) [3] = biological target: T5, human FcγRIIa(H) (human, UniProt P12318 36-217); assay: as above
T5 construct: also called hFcgRIIa(H); FcγRIIa type H
T5 sequence: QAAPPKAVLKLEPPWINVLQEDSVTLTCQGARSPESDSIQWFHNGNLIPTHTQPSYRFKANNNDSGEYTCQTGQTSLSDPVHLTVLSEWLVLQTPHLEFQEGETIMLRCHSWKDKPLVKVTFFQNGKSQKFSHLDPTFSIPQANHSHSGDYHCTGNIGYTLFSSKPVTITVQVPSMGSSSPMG
Description: as §1

human FcγRIIIa(F) [4] = biological target: T6, human FcγRIIIa(F) (human, UniProt P08637 17-208, limits assumed); assay: as above
T6 construct: also called hFcgRIIIa(F); allotype F158
T6 sequence (P08637 other isoform, or with tags, fused parts or gaps limits assumed): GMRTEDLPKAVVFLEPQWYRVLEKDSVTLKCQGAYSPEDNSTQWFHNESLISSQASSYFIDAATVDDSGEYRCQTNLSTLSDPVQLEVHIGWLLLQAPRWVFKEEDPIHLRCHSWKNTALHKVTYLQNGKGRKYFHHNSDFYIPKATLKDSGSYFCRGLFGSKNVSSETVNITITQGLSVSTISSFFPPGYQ
Description: as §1

human FcγRIIa(R) [5] = biological target: T7, human FcγRIIa(R) (human, UniProt P12318 36-217); assay: SPR, captured antibody, FcγR as analyte
T7 construct: Soluble analyte in SPR; also called FcgRIIaR; FcγRIIa type R
T7 chain: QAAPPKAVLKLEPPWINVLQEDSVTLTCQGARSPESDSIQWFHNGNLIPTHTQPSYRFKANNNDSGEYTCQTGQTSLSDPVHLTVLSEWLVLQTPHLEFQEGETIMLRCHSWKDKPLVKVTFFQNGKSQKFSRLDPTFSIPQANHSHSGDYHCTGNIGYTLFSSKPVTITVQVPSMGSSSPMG
Description: as §1
(§2) Binding strength was evaluated according to the following method based on the results of analyzing the interaction with each FcγR. […] That value was then further multiplied by 100, and the resulting value was used as an indicator of relative binding activity to each FcγR.

human FcγRIIa(H) [6] = biological target: T8, human FcγRIIa(H) (human, UniProt P12318 36-217); assay: SPR, captured antibody, FcγR as analyte
T8 construct: Soluble analyte in SPR; also called FcgRIIaH; FcγRIIa type H
T8 sequence: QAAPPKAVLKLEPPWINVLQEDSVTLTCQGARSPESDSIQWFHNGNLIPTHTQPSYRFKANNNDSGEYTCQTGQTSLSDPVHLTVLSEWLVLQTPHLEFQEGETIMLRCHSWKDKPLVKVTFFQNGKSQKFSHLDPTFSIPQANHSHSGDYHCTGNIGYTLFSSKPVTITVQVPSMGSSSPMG
Description: as §1, §2

human FcγRIIb [7] = biological target: T9, human FcγRIIb (human, UniProt P31994 43-217, limits assumed); assay: SPR, captured antibody, FcγR as analyte
T9 construct: Soluble analyte in SPR; also called FcgRIIb; FcγIIB
T9 sequence: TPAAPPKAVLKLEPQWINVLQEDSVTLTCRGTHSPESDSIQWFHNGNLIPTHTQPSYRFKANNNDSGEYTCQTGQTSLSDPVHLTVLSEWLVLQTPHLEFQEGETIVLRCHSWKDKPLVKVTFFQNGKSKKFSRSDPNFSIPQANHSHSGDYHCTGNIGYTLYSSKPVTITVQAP
Description: as §1, §2

human FcγRIIIa(F) [8] = biological target: T10, human FcγRIIIa(F) (human, UniProt P08637 17-208, limits assumed); assay: SPR, captured antibody, FcγR analyte; bound amount per captured antibody
T10 construct: also called FcgRIIIaF; FcγRIIIa allotype F158
T10 sequence (P08637 other isoform, or with tags, fused parts or gaps limits assumed): as the sequence (P08637 other isoform, or with tags, fused parts or gaps limits assumed) above
Description: as §1, §2

human FcγRIIb [9] = biological target: T11, human FcγRIIb (human, UniProt P31994 43-217, limits assumed); assay: as above
T11 construct: also called FcgRIIb; FcγIIB
T11 sequence: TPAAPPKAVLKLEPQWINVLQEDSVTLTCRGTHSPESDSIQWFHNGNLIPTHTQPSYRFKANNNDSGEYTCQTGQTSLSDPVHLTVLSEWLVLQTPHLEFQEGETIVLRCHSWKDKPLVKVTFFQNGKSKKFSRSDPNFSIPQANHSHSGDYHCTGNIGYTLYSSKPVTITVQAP
Description: as §1, §2

human FcγRIIIa(F) [10] = biological target: T12, human FcγRIIIa(F) (human, UniProt P08637 17-208, limits assumed); assay: SPR, captured antibody, FcγR as analyte
T12 construct: Soluble analyte in SPR; allotype F158 stood in the assay; also called FcgRIIIaF; FcγRIIIa allotype F158
T12 sequence (P08637 other isoform, or with tags, fused parts or gaps limits assumed): as the sequence (P08637 other isoform, or with tags, fused parts or gaps limits assumed) above
Description: as §1, §2

T2 sequence (P12314 16-292 limits assumed): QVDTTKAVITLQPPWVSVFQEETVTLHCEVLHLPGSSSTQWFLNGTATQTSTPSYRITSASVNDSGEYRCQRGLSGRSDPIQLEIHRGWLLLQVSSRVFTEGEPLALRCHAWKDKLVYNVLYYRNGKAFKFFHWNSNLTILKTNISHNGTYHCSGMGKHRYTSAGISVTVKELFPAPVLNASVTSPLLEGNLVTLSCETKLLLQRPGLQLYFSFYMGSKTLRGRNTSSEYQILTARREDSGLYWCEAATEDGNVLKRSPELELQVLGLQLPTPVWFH

relative binding activity (human FcγRIIa type R): 661 % of IL6R-BF648/IL6R-L
B1: IL6R-BP195/IL6R-L (antibody, human IgG1, name in EU numbering)
heavy: QVQLQESGPGLVKPSETLSLTCAVSGHSISHDHAWSWVRQPPGEGLEWIGFISYSGITNYNPSLQGRVTISRDNSKNTLYLQMNSLRAEDTAVYYCARSLARTTAMDYWGEGTLVTVSSASTKGPSVFPLAPSSKSTSGGTAALGCLVKDYFPEPVTVSWNSGALTSGVHTFPAVLQSSGLYSLSSVVTVPSSSLGTQTYICNVNHKPSNTKVDKKVEPKSCDKTHTCPPCPAPDYLGDDSVFLFPPKPKDTLMISRTPEVTCVVVDVSDEDGEVKFNWYVDGVEVHNAKTKPREEQDNSTYRVVSVLTVLHQDWLNGKEYKCKVSNAALPKPIEKTISKAKGQPREPQVYTLPPSRDELTKNQVSLTCLVKGFYPSDIAVEWESNGQPENNYKTTPPVLDSDGSFFLYSKLTVDKSRWQQGNVFSCSVMHEALHNHYTQESLSLSP
light: DIQMTQSPSSLSASVGDRVTITCRASQDISSYLNWYQQKPGKAPKLLIYYTSRLHSGVPSRFSGSGSGTDFTFTISSLQPEDIATYYCQQGNTLPYTFGQGTKVEIK
notes: Anti-human IL-6 receptor IgG1 Fc variant; also called E233D/L234Y/G237D/P238D/H268D/P271G/Y296D/K326A/A330K; copies: 2 + 2

relative binding activity (amount bound / amount bound by GpH7-G1d/GpL16-k0 x 100) (human FcγRIa): 109 | relative binding activity (amount bound / amount bound by GpH7-G1d/GpL16-k0 x 100) (human FcγRIIa(R) [1]): 94 | relative binding activity (amount bound / amount bound by GpH7-G1d/GpL16-k0 x 100) (human FcγRIIb [2]): 88 | relative binding activity (amount bound / amount bound by GpH7-G1d/GpL16-k0 x 100) (human FcγRIIa(H) [3]): 92 | relative binding activity (amount bound / amount bound by GpH7-G1d/GpL16-k0 x 100) (human FcγRIIIa(F) [4]): 88
B2: GpH7-B3/GpL16-k0 (antibody, human IgG1)
heavy: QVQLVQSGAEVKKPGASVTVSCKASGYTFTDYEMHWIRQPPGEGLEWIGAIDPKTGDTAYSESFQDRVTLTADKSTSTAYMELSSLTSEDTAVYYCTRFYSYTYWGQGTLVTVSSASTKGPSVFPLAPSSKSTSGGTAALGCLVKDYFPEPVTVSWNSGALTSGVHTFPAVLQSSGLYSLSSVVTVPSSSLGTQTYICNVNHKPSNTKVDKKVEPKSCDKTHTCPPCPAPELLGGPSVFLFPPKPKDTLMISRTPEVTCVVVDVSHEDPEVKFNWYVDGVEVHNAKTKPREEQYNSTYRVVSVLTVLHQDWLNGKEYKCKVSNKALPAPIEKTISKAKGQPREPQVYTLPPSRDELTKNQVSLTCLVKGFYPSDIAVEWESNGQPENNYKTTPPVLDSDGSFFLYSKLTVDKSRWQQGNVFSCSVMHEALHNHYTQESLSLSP
light: DIVMTQSPLSLPVTPGEPASISCQASESLVHSNRNTYLHWYLQKPGQSPQLLIYKVSNRFSGVPDRFSGSGSGTDFTLKISRVEAEDVGVYYCSQNTHVPPTFGQGTKVEIE
notes: also called anti-glypican-3 antibody with B3 constant region (G1d with K439E)

relative binding activity (human FcγRIIa(R) [5]): 1 % of GpH7-B3/GpL16-k0
B3: GpH7-B3 variant D265F/GpL16-k0 (antibody, human IgG1)
heavy: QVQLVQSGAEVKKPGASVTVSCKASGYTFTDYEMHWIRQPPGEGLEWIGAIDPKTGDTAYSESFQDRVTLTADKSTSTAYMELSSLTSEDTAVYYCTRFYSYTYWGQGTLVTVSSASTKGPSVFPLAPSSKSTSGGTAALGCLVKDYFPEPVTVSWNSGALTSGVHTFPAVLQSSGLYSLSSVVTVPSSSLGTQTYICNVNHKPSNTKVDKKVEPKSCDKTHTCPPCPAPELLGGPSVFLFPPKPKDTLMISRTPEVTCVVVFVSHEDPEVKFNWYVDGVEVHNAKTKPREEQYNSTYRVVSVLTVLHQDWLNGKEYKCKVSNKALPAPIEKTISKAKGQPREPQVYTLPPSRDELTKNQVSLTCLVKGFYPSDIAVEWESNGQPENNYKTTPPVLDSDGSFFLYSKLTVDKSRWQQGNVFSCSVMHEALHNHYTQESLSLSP
light: DIVMTQSPLSLPVTPGEPASISCQASESLVHSNRNTYLHWYLQKPGQSPQLLIYKVSNRFSGVPDRFSGSGSGTDFTLKISRVEAEDVGVYYCSQNTHVPPTFGQGTKVEIE
notes: copies: 2 + 2

relative binding activity (human FcγRIIa(H) [6]): 1 % of GpH7-B3/GpL16-k0 | relative binding activity (human FcγRIIb [7]): 2 % of GpH7-B3/GpL16-k0
B4: GpH7-B3 variant P238K/GpL16-k0 (antibody, human IgG1)
heavy: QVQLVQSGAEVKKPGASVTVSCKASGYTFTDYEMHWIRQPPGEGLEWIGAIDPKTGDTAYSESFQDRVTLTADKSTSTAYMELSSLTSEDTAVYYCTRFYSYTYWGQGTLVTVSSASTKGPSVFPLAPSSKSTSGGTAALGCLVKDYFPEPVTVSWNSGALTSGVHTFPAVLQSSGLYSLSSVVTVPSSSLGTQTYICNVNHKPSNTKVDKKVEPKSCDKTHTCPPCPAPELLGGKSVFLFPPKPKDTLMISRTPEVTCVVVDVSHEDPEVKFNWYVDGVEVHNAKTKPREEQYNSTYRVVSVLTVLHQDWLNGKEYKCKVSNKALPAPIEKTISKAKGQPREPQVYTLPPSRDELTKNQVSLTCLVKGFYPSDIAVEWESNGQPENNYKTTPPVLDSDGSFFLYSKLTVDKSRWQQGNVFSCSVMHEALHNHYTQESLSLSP
light: DIVMTQSPLSLPVTPGEPASISCQASESLVHSNRNTYLHWYLQKPGQSPQLLIYKVSNRFSGVPDRFSGSGSGTDFTLKISRVEAEDVGVYYCSQNTHVPPTFGQGTKVEIE
notes: copies: 2 + 2

relative binding activity (human FcγRIIIa(F) [8]): 1 % of GpH7-B3/GpL16-k0
B5: GpH7-B3 G236R/GpL16-k0 (antibody, human IgG1)
heavy: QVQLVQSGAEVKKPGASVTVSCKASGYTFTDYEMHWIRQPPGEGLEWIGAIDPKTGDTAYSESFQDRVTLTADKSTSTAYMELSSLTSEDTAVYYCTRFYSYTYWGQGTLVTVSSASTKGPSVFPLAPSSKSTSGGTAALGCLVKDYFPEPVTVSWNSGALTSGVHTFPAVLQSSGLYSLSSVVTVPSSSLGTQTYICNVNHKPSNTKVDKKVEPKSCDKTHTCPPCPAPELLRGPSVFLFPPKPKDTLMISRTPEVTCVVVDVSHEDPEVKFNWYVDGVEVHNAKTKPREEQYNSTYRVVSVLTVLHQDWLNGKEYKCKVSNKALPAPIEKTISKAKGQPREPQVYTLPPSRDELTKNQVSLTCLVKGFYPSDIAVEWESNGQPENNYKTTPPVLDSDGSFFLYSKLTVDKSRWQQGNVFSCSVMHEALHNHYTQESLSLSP
light: DIVMTQSPLSLPVTPGEPASISCQASESLVHSNRNTYLHWYLQKPGQSPQLLIYKVSNRFSGVPDRFSGSGSGTDFTLKISRVEAEDVGVYYCSQNTHVPPTFGQGTKVEIE
notes: anti-glypican-3 IgG1; B3 constant region (G1d with K439E); also called B3 variant; copies: 2 + 2

relative binding activity (human FcγRIIb [9]): 2 % of GpH7-B3/GpL16-k0
B6: GpH7-B3 L235R/GpL16-k0 (antibody, human IgG1)
heavy: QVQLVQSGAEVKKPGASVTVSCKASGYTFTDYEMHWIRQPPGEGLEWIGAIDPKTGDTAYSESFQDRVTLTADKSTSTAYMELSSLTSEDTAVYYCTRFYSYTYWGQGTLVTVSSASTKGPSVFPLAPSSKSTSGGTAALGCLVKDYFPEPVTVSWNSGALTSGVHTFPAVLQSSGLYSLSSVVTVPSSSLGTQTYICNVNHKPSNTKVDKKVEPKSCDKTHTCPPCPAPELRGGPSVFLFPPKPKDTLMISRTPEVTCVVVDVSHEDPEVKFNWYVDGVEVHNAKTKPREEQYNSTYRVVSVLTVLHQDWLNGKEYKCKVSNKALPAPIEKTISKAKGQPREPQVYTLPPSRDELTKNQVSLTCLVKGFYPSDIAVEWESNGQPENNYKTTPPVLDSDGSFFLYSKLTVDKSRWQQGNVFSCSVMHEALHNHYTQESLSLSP
light: DIVMTQSPLSLPVTPGEPASISCQASESLVHSNRNTYLHWYLQKPGQSPQLLIYKVSNRFSGVPDRFSGSGSGTDFTLKISRVEAEDVGVYYCSQNTHVPPTFGQGTKVEIE
notes: as for B5

relative binding activity (human FcγRIIIa(F) [10]): 1 % of GpH7-B3/GpL16-k0
B7: GpH7-B3 variant P238W/GpL16-k0 (antibody, human IgG1)
heavy: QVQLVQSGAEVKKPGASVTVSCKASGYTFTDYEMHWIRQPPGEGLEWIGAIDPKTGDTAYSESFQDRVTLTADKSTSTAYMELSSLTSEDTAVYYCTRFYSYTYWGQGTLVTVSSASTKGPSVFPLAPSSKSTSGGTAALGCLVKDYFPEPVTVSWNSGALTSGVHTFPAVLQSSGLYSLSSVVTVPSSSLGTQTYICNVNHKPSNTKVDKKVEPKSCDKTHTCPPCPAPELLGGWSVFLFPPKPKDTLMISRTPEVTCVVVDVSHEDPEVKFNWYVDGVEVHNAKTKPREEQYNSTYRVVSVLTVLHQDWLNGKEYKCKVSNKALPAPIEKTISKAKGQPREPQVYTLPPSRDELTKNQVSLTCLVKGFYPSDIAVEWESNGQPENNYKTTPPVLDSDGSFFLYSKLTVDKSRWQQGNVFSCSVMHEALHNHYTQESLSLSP
light: DIVMTQSPLSLPVTPGEPASISCQASESLVHSNRNTYLHWYLQKPGQSPQLLIYKVSNRFSGVPDRFSGSGSGTDFTLKISRVEAEDVGVYYCSQNTHVPPTFGQGTKVEIE
notes: copies: 2 + 2
